The values below come from publication PMC8615271.

This assay addresses PDI and ERp72 (human). The assay is described as follows: ITC; 280 µM P5 Cys55/58/190/193Ala mutant in the syringe (50 mM HEPES pH 7.2, 150 mM NaCl) titrated into 40 µM PDI or ERp72 in the cell (50 mM HEPES pH 7.2); 30 °C; one set of sites model.

B1: Catalytically-inactive P5 (Cys55/58/190/193Ala) mutant (enzyme)
chain: LYSSSDDVIELTPSNFNREVIQSDSLWLVEFYAPWAGHAQRLTPEWKKAATALKDVVKVGAVDADKHHSLGGQYGVQGFPTIKIFGSNKNRPEDYQGGRTGEAIVDAALSALRQLVKDRLGGRSGGYSSGKQGRSDSSSKKDVIELTDDSFDKNVLDSEDVWMVEFYAPWAGHAKNLEPEWAAAASEVKEQTKGKVKLAAVDATVNQVLASRYGIRGFPTIKIFQKGESPVDYDGGRTRSDIVSRALDLFSDNAPPPELLEIINEDIAKRTCEEHQLCVVAVLPHILDTGAAGRNSYLEVLLKLADKYKKKMWGWLWTEAGAQSELETALGIGGFGYPAMAAINARKMKFALLKGSFSEQGINEFLRELSFGRGSTAPVGGGAFPTIVEREPWDGRDGELPVEDDIDLSDVELDDLGKDEL
As usually defined, the Kd is the constant that tells how readily two partners part at equilibrium. A lower Kd goes with tighter binding. The molecule B1 came in with a Kd of 2.4 to 4.1 µM.
